Among the data in publication PMC2857095 are Km and kcat values, retold here.

Numbering of substitutions follows the chain as printed. Names and notes keep the numbering of the source.

Substrate in the series: Nc1ncnc2c1ncn2[C@@H]1O[C@H](COP(=O)(O)OP(=O)(O)OP(=O)(O)O)[C@@H](O)[C@H]1O
As to the kind of experiment: purified protein. Conditions: no DNA, 100 mM MgCl2.

B1: MutS (Escherichia coli K-12) (protein)
chain: MSAIENFDAHTPMMQQYLRLKAQHPEILLFYRMGDFYELFYDDAKRASQLLDISLTKRGASAGEPIPMAGIPYHAVENYLAKLVNQGESVAICEQIGDPATSKGPVERKVVRIVTPGTISDEALLQERQDNLLAAIWQDSKGFGYATLDISSGRFRLSEPADRETMAAELQRTNPAELLYAEDFAEMSLIEGRRGLRRRPLWEFEIDTARQQLNLQFGTRDLVGFGVENAPRGLCAAGCLLQYAKDTQRTTLPHIRSITMEREQDSIIMDAATRRNLEITQNLAGGAENTLASVLDCTVTPMGSRMLKRWLHMPVRDTRVLLERQQTIGALQDFTAGLQPVLRQVGDLERILARLALRTARPRDLARMRHAFQQLPELRAQLETVDSAPVQALREKMGEFAELRDLLERAIIDTPPVLVRDGGVIASGYNEELDEWRALADGATDYLERLEVRERERTGLDTLKVGFNAVHGYYIQISRGQSHLAPINYMRRQTLKNAERYIIPELKEYEDKVLTSKGKALALEKQLYEELFDLLLPHLEALQQSASALAELDVLVNLAERAYTLNYTCPTFIDKPGIRITEGRHPVVEQVLNEPFIANPLNLSPQRRMLIITGPNMGGKSTYMRQTALIALMAYIGSYVPAQKVEIGPIDRIFTRVGAADDLASGRSTFMVEMTETANILHNATEYSLVLMDEIGRGTSTYDGLSLAWACAENLANKIKALTLFATHYFELTQLPEKMEGVANVHLDALEHGDTIAFMHSVQDGAASKSYGLAVAALAGVPKEVIKRARQKLRELESISPNAAATQVDGTQMSLLSVPEETSPAVEALENLDPDSLTPRQALEWIYRLKSLV
B1: under “low affinity site”, the Michaelis-Menten constant (Km) came to 6.8 ± 0.6 µM and the kcat is 0.0317 ± 0.00067 s⁻¹.

B2: MutS (Escherichia coli K-12; D693N) (protein)
chain: B1 chain with D693N
In the case of B2, the Km (kcat unit not printed beside value) was 34 µM.
